Assay results reported in article PMC8518580.

How the values were obtained:
Conditions in all cases: EMSA: LightShift REMSA kit, 30 min, 25 °C, 5% native PAGE (buffer not given); MST: Monolith NT.115, RED-labelled NbeEF1A, labelling in PBS, temperature not …
[1] = tested on: NbeEF1A (eEF1A) (Nicotiana benthamiana); assay: MST
[2] = tested on: NbeEF1A (eEF1A) (Nicotiana benthamiana); assay: EMSA
[3] = tested on: NbeEF1A (eEF1A) (Nicotiana benthamiana); assay: MST; remark: listed apart in the source

## RNA2 3'-UTR dSL-6 (del3561-3565)
[1]
  Kd: 0.998 µM
[2]
  binding signal (% of WT 3'-UTR): 6

## RNA2 3'-UTR del3174-3406
[3]
  Kd: 0.0685 µM

## CWMV RNA2 (+) 3'-UTR
[3]
  Kd: 0.0125 µM
[1]
  Kd: 0.00651 µM

## RNA2 3'-UTR dSL-1 (del3419-3429)
[1]
  Kd: 0.117 µM

## RNA2 3'-UTR dSL-2 (del3469-3471)
[1]
  Kd: 0.0917 µM

## CWMV RNA1 (+) 3'-UTR
[3]
  Kd: 0.00732 µM

## RNA2 3'-UTR dSL-3 (del3500-3503)
[1]
  Kd: 0.0335 µM

## RNA1 3'-UTR del6730-6987
[3]
  Kd: 0.0677 µM

## RNA2 3'-UTR dSL-4 (del3505-3509)
[1]
  Kd: 0.113 µM

## RNA1 3'-UTR del6988-7147
[3]
  Kd: 0.964 µM

## RNA2 3'-UTR dSL-5 (del3532-3535)
[1]
  Kd: 0.036 µM

## RNA2 3'-UTR del3407-3569
[3]
  Kd: 0.997 µM
